This note sets out measurements from US20200199196A1 (WASHINGTON UNIVERSITY, published 2020).

Experiment [1] concerns the target T1, monomeric RANK (monomeric fragment of RANK) (UniProt O35305 31-214, limits assumed).
T1 construct: The monomeric RANK of the SPR and the RANK-6xHis of the yeast display are treated here as one molecule; also called RANK-6xHis; RANK-6His
T1 sequence (looked up): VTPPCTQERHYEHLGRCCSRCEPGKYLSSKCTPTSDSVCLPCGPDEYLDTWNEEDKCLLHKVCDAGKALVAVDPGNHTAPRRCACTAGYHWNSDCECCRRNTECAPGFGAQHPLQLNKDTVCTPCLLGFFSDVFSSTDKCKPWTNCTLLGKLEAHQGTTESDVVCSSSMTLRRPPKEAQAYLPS
Description: yeast surface display, flow cytometry titration (FIG. 13).

Experiment [2] deals with T2, monomeric OPG (monomeric fragment of OPG) (UniProt O08712 22-197, limits assumed).
T2 construct: also called OPG-6xHis; unlabeled OPG
T2 sequence (looked up): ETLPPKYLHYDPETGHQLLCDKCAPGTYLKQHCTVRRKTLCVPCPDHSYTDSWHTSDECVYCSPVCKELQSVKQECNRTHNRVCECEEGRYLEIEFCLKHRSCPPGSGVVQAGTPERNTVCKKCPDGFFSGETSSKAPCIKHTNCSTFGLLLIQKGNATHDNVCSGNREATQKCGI
The experiment is described as follows: yeast surface display, flow cytometry titration (FIG. 13A).

B1: CDins/Q236H htRANKL (CDins combined with the Q236H mutation) (ligand)
chain: QPFAHLTINAASIPSGSHKVTLSSWYHDRGWAKISNMTLSNGKLRVNQDGFYYLYANISFRGGSHHETSGSVPTDYLHLMVYVVKTSEKIPSSHNLMKGGSTKNWSGNSEFHFYSINVGGFFKLRAGEEISIQVSNPSLLDPDQDATYFGAFKVQDID
notes: also called variant RANKL that combined CDins with the Q236H mutation
As for B1, the binding result in experiment [1] and in experiment [2] was “no binding” throughout.
